From article PMC2783927

T1: IL-17F homodimer (crystallised form: tag cleaved, lysine-methylated) (human), Q96PD4
T1 chain: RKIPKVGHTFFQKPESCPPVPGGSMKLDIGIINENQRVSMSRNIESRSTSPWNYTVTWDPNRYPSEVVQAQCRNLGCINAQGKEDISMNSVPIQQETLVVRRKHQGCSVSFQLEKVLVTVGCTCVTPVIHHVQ

B1: IL-17RC extracellular domain, soluble (without BirA ligase tag) (receptor)
chain: LERLVGPQDATHCSPVSLEPWGDEERLRVQFLAQQSLSLAPVTAATARTALSGLSGADGRREERGRGKSWVCLSLGGSGNTEPQKKGLSCRLWDSDILCLPGDIVPAPGPVLAPTHLQTELVLRCQKETDCDLCLRVAVHLAVHGHWEEPEDEEKFGGAADSGVEEPRNASLQAQVVLSFQAYPTARCVLLEVQVPAALVQFGQSVGSVVYDCFEAALGSEVRIWSYTQPRYEKELNHTQQLPDCRGLEVWNSIPSCWALPWLNVSADGDNVHLVLNVSEEQHFGLSLYWNQVQGPPKPRWHKNLTGPQIITLNHTDLVPCLCIQVWPLEPDSVRTNICPFREDPRAHQNLWQAARLQLLTLQSWLLDAPCSLPAEAALCWRAPGGDPCQPLVPPLSWENVTVDKVLEFPLLKGHPNLCVQVNSSEKLQLQECLWADSLGPLKDDVLLLETRGPQDNRSLCALEPSGCTSLPSKASTRAARLGEYLLQDLQSGQCLQLWDDDLGALWACPMDKYIHKR
B2: IL-17F homodimer (crystallised form: tag cleaved, lysine-methylated), Q96PD4 31-163 (ligand)
chain: T1 chain
modifications: here or on the partner: reductive lysine methylation of the complex; reductive lysine methylation of the complex

Tests used:
[1] = molecular target: IL-17F homodimer (for binding experiments) (human) (UniProt Q96PD4); test: SEC
[2] = molecular target: IL-17RB-IL-25 complex, pre-assembled on the SPR chip (UniProt Q9NRM6); test: SPR
UniProt Q9NRM6, sequence (Q9NRM6 18-292, chain 1 of 2): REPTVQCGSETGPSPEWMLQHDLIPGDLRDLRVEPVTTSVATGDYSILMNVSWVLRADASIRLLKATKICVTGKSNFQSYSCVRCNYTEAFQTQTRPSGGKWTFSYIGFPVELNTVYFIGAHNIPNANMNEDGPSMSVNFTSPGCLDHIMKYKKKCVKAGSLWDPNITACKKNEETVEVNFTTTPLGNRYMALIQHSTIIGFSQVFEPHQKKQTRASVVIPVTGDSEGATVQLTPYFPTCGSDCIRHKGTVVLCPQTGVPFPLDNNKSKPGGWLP
UniProt Q9NRM6, sequence (Q9H293 33-177, chain 2 of 2, further chain): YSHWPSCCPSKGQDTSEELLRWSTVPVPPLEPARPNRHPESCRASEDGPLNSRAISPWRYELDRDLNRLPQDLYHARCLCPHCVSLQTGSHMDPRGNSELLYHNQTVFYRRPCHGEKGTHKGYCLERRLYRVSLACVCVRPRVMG

[3] = molecular target: IL-17RC-IL-17A complex, pre-assembled on the SPR chip (UniProt Q8NAC3); test: SPR
[4] = molecular target: IL-17RC-IL-17F complex, pre-assembled on the SPR chip (UniProt Q8NAC3); test: SPR
[5] = molecular target: IL-17RA extracellular domain, C-terminally biotinylated (human) (UniProt Q96F46); test: SPR
[6] = molecular target: IL-17RC extracellular domain, C-terminally biotinylated (UniProt Q8NAC3); test: SPR
[7] = molecular target: T1, IL-17F homodimer (crystallised form: …); test: SDS-PAGE; settings: remark: other sources report otherwise
[8] = molecular target: T1, IL-17F homodimer (crystallised form: …); test: crystal structure; settings: remark: other sources report otherwise

Molecule	Kd [3] [nM]	Kd [5] [nM]	Kd [6] [nM]	other results
IL-17RA extracellular domain, soluble (without BirA ligase tag) (receptor)	162			stoichiometry N (receptor per IL-17 dimer) [1]: 1; stoichiometry N (receptors per IL-17 dimer) [1]: 2; Kd [2]: 14100 nM; Kd [4]: 23800 nM
IL-17A homodimer (from UniProt Q16552 24-155) (ligand)		2.8	1.2	
IL-17F homodimer (for binding experiments) (from UniProt Q96PD4 31-163) (ligand)		292	4.4	
B1	8000			
B2				stoichiometry N [7]: 2; stoichiometry N [8]: 2
